According to patent US20230068663A1 (University of Texas, published 2023):

B1: B2-15 (antibody, V domains shown)
VH: EVQLVQSGAEVKKSGASVKVSCKSSGYTFTNYGISWVRQAPGQGLEWMGWISGDAGDTKFAQKFQGRVTMTTDTSTTTTYMELRSLRSDDTAVYYCARDGEYIPMFRGFDNYYGLDVWGQGTLVSVSS
VL: QSVLTQPPSASATPGQRVTISCSGRNANIGSNPVNWYQQLPGTAPRLVMYSNNQRPSGVPDRFSGSKSGTSASLAISGLQSEDEADYYCEGWDDSLNGYVFGTGTKVTVL
notes: also called B-15; B2-15_HC
B2: B2-16 (antibody, V domains shown)
VH: QVQLVQSGAEVKKPGSSVKVSCKASGGTFSSYAISWVRQAPGQGLEWMGGIIPIFGTANYAQKFQGRVTITADESTSTAYMELSSLRSEDTAVYYCASGIIPDNPYGMDVWGQGTMVSVSS
VL: DIVMTQSPLSLPVTLGQPASISCTSSQSLVYSDGNTYLNWFHQRPGQSPRRLFYKVSNRASGVPDRFSGSGSGTDFTLKISRVEAEDLGVYYCMQGTHWPVTFGQGTRLEIK
notes: also called B2-16_HC; B2-16_LC
B3: B2-7 (antibody, V domains shown)
VH: EVQLVESGGGVVQPGRSLRLSCAASGFTISSYGMHWVRQAPGKGLEWVAVISYDGSNKYYADSVKGRFTISRDNSKNTLYLQMNSLRVEDTAVYYCAKDLLLRYFDWSPKYYYNGMDVWGQGTMVTVSS
VL: QSVLTQPPSVSVAPGKTARITCGGNNIGSKSVHWYQQKPGQAPVLVVYDDSDRPSGIPERFSGSNSGNTATLTISRVEAGDEADYYCQVWDSSSDHPGVFGTGTKVTVL
notes: also called B2-7_HC; B2-7_LC
B4: B2-19 (antibody, V domains shown)
VH: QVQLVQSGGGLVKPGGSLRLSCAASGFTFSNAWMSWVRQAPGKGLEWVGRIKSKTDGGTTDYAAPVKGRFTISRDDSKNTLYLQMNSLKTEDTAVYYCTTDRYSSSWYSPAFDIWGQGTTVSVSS
VL: QPVLTQPPSVSEAPRQRVTISCSGSSSNIGNNVVNWYQQLPGKAPKLLIYYDDLLPSGVSDRFSGSKSGTSASLAISGLQSEDEADYYCATWDDSLNGPVFGGGTKLTVL
notes: also called B2-19_HC; B2-19_LC

The binders below were run against T1, LILRB2 chimeric receptor on LILRB2 reporter cells (extracellular domain of LILRB2 fused with … (UniProt Q8N423 22-460)) (assay: cell-based or functional assay).

Row | Blocking potency (IC50) of GFP expression in LILRB2 reporter cells induced by coated ANGPTL2 [µg/mL] | Binder
1 | 0.341 | B1
2 | 0.131 | B2
3 | 0.221 | B3
4 | 0.0485 | B4

These binders were tested against T2, LILRB1 (assay: flow cytometry, reporter cells).
T2 construct: also called LILRB1 reporter cells; not shown: transmembrane/intracellular domains of PILRb, the display part of the chimeric reporter receptor
T2 sequence (chain, as listed by the source limits assumed): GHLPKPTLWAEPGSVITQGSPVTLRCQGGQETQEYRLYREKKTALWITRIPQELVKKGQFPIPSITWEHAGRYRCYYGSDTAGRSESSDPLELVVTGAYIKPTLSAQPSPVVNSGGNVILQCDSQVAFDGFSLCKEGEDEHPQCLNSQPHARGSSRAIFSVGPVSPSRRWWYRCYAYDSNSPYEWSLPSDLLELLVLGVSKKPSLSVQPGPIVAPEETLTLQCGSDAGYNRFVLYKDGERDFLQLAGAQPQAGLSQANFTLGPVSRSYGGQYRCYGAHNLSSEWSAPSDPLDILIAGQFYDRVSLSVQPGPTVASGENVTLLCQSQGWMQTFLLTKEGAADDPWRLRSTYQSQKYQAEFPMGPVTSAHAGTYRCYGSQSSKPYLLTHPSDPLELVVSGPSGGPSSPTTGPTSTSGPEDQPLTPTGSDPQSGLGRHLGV
Procedure: (§1) FIG. 29. Binding of LILRB2 antibodies on reporter cell line expressing ectodomain of LILR family proteins on cell surface. Bound antibodies were detected with anti-human Fc-specific secondary antibody (2nd Ab) conjugated to AF647. […] All incubations were performed for 30 minutes at 4° C. Data shown is mean fluorescence intensity after sample acquisition in flow cytometer.

Row | MFI | binding result | Binder
5 | 9 | no binding | B1
6 | 10 | no binding | B2
7 | 10 | no binding | B3
8 | 10 | no binding | B4

What follows are binders tested against T3, LILRB3 (assay: flow cytometry, reporter cells).
T3 construct: also called LILRB3 reporter cells; not shown: transmembrane/intracellular domains of PILRb, the display part of the chimeric reporter receptor
Procedure: as §1

Row | MFI | binding result | Binder
9 | 9 | no binding | B1
10 | 10 | no binding | B2
11 | 11 | no binding | B3
12 | 9 | no binding | B4

Each binder was assayed against T4, LILRB4 (assay: flow cytometry, reporter cells).
T4 construct: also called LILRB4 reporter cells; not shown: transmembrane/intracellular domains of PILRb, the display part of the chimeric reporter receptor
Procedure: as §1

Row | MFI | binding result | Binder
13 | 14 | no binding | B1
14 | 14 | no binding | B2
15 | 15 | no binding | B3
16 | 14 | no binding | B4

These binders were tested against T5, LILRB5 (assay: flow cytometry, reporter cells).
T5 construct: also called LILRB5 reporter cells; not shown: transmembrane/intracellular domains of PILRb, the display part of the chimeric reporter receptor
T5 sequence (chain, as listed by the source limits assumed): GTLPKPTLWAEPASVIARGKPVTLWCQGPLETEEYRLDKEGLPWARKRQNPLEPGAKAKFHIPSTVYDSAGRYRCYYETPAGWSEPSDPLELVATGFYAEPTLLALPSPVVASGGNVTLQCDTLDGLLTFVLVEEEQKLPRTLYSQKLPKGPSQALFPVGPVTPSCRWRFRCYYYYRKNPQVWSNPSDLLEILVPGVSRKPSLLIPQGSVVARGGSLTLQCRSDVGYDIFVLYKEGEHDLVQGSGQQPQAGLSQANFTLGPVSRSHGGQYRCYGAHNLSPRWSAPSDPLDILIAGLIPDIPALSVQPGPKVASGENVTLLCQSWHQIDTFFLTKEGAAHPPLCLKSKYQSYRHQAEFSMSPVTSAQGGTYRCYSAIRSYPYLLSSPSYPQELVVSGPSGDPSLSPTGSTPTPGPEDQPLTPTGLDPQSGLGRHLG
Procedure: as §1

Row | MFI | binding result | Binder
17 | 11 | no binding | B1
18 | 11 | no binding | B2
19 | 11 | no binding | B3
20 | 11 | no binding | B4

What follows are binders tested against T6, LILRA2 (assay: flow cytometry, reporter cells).
T6 construct: also called LILRA2 reporter cells; not shown: transmembrane/intracellular domains of PILRb, the display part of the chimeric reporter receptor
T6 sequence (chain, as listed by the source limits assumed): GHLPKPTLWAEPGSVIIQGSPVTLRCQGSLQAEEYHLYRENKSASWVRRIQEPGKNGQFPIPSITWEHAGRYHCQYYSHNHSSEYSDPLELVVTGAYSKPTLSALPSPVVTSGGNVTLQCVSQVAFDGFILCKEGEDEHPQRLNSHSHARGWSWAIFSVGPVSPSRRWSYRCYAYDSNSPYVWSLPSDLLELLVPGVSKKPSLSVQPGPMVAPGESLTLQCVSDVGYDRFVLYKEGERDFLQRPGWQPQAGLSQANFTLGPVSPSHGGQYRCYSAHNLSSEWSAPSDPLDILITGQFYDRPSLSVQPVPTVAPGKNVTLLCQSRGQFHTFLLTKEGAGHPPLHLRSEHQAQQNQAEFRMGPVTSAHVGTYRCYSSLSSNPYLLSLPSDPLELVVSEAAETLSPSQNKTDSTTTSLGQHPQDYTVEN
Procedure: as §1

Row | MFI | binding result | Binder
21 | 10 | no binding | B1
22 | 10 | no binding | B2
23 | 10 | no binding | B3
24 | 10 | no binding | B4

What follows are binders tested against T7, LILRA3 (assay: flow cytometry, reporter cells).
T7 construct: also called LILRA3 reporter cells; not shown: transmembrane/intracellular domains of PILRb, the display part of the chimeric reporter receptor
T7 sequence (chain, as listed by the source limits assumed): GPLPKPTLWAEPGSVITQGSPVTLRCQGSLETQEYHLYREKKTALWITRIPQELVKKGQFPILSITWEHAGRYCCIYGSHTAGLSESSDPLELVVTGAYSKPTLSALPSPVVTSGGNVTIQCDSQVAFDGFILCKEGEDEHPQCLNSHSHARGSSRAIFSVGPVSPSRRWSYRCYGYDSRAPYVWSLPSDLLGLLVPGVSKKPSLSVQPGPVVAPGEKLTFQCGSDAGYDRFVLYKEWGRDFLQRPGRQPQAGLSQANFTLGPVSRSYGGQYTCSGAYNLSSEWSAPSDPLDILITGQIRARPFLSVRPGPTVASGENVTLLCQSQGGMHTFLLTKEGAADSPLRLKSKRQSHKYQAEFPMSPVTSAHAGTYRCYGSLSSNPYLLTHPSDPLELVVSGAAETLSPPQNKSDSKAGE
Procedure: as §1

Row | MFI | binding result | Binder
25 | 10 | no binding | B1
26 | 10 | no binding | B2
27 | 10 | no binding | B3
28 | 10 | no binding | B4

What follows are binders tested against T8, LILRA4 (assay: flow cytometry, reporter cells).
T8 construct: also called LILRA4 reporter cells
T8 sequence (chain, as listed by the source limits assumed): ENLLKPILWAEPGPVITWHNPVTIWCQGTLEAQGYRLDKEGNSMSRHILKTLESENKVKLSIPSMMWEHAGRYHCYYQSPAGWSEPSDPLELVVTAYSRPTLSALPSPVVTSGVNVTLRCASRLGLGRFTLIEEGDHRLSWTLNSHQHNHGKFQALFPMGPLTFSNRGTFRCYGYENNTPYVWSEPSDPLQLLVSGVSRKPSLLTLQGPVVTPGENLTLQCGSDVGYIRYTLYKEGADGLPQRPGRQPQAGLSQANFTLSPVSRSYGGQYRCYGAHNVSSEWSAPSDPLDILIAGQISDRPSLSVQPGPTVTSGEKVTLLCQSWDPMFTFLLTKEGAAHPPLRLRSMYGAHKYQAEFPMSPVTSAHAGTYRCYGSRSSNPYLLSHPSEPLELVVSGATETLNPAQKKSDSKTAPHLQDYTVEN
Procedure: as §1

Row | MFI | binding result | Binder
29 | 9 | no binding | B1
30 | 10 | no binding | B2
31 | 10 | no binding | B3
32 | 10 | no binding | B4

The binders below were run against T9, LILRA5 (assay: flow cytometry, reporter cells).
T9 construct: also called LILRA5 reporter cells
T9 sequence (chain, as listed by the source limits assumed): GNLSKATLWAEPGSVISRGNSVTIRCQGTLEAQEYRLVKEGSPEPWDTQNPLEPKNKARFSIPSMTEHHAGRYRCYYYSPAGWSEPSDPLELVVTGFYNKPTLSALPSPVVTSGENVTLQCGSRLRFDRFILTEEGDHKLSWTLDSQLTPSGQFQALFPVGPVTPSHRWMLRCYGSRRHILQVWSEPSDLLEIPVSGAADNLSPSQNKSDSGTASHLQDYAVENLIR
Procedure: as §1

Row | MFI | binding result | Binder
33 | 11 | no binding | B1
34 | 12 | no binding | B2
35 | 11 | no binding | B3
36 | 11 | no binding | B4

Each binder was assayed against T10, LILRA6 (assay: flow cytometry, reporter cells).
T10 construct: also called LILRA6 reporter cells
T10 sequence (chain, as listed by the source limits assumed): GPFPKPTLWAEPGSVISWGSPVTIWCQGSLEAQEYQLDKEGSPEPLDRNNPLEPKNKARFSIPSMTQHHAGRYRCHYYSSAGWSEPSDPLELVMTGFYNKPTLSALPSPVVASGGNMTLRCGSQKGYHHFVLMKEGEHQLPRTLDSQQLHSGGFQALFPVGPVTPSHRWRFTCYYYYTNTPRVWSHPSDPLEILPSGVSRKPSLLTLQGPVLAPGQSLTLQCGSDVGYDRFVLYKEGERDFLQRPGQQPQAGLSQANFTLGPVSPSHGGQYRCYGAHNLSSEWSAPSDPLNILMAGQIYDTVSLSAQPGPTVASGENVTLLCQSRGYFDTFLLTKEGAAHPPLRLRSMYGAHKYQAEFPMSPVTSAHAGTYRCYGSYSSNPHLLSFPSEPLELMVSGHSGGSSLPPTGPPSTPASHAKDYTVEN
Procedure: as §1

Row | MFI | binding result | Binder
37 | 10 | no binding | B1
38 | 12 | no binding | B2
39 | 11 | no binding | B3
40 | 11 | no binding | B4

These binders were tested against T1, LILRB2 chimeric receptor on LILRB2 … (assay: flow cytometry, reporter cells).
Procedure: as §1

Row | MFI | Binder
41 | 910 | B1
42 | 940 | B2
43 | 1160 | B3
44 | 1280 | B4

Each binder was assayed against T11, LILRA1 on reporter cells (extracellular domain) (UniProt O75019 17-461, limits assumed) (assay: flow cytometry, reporter cells).
T11 construct: extracellular domain
T11 sequence (O75019 17-461 limits assumed): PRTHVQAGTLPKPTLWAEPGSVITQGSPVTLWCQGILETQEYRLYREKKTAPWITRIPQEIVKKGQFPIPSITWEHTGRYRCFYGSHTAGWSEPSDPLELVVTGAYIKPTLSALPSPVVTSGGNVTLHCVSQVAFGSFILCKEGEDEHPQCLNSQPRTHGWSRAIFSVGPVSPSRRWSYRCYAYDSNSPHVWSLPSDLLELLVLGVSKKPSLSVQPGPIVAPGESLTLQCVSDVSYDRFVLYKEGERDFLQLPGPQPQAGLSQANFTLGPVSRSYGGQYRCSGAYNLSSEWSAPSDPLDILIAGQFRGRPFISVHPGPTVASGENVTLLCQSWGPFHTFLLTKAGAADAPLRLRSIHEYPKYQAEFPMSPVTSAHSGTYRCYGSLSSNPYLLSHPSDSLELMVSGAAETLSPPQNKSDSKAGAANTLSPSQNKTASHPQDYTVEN
Procedure: as §1

Row | MFI | binding result | Binder
45 | 10 | no binding | B1
46 | 12 | no binding | B2
47 | 12 | no binding | B3
48 | 11 | no binding | B4

The binders below were run against T12, LILRB2-His antigen (UniProt Q8N423 22-460, limits assumed) (assay: indirect ELISA, coated LILRB2-His).
T12 construct: Coated on ELISA plates; also used for phage panning; also called LILRB2 antigen; not shown: His tag
Procedure: ELISA binding EC of LILRB2 antibodies. The ELISA binding EC₅₀ of these 24 antibodies were measured by indirect ELISA. […] After incubation, HRP-conjugated goat anti-human Fc secondary antibody was incubated with the plates. The TMB substrate was added for color development and measurement of absorbance at 450 nm.

Row | EC50 [nM] | Binder
49 | 46.5 | B1
50 | 9.97 | B2
51 | 82.9 | B3
52 | 3.82 | B4

What follows are binders tested against T13, endogenous LILRB2 on human myeloid cells / primary monocytes (human, UniProt Q8N423 22-597) (assay: flow cytometry, CD14+CD16- monocytes, AF647-conjugated antibody).
T13 construct: whole, on cells; also called cells expressing endogenous LILRB2
Procedure: FIG. 32. Binding of LILRB2 antibodies on CD14⁺CD16-monocytes isolated from human PBMC from healthy donors. Fifty thousand cells were incubated for 30 minutes at 4° C. with a dilution series (40-0.0006 μg/mL) of LILRB2 antibodies directly conjugated to AF647 in a final volume of 100 μL. Data shown is averaged geometric mean of fluorescence intensity from duplicate samples acquired in a flow cytometer (BD FACS Celesta) from one donor and is representative of 2 experiments with cells isolated from different donors.

Row | EC50 [µg/mL] | Binder
53 | 0.056 | B1
54 | 0.547 | B2
55 | 0.332 | B3
56 | 0.219 | B4

Each binder was assayed against T14, LILRB2 (antigen in solution, Octet RED 96) (UniProt Q8N423 22-460, limits assumed) (assay: BLI (Octet RED 96), antibody on protein A biosensor, LILRB2 in solution).
T14 construct: also called LILRB2 solution
Procedure: Affinity measurement of blocking antibodies. Affinities of the 5 blocking antibodies were measured on Octet RED 96 system.

Row | Kd [nM] | koff [s⁻¹] | kon [M⁻¹ s⁻¹] | Binder
57 | 18.9 | 0.00565 | 299000 | B1
58 | 7.45 | 0.0009 | 121000 | B2
59 | 15.2 | 0.00305 | 200000 | B3
60 | 1.84 | 0.00046 | 250000 | B4

Each binder was assayed against T15, full length human LILRB2 stably expressed on HEK293 cells (human, UniProt Q8N423 22-597) (assay: flow cytometry, HEK293 cells expressing full length human LILRB2).
T15 construct: whole, on cells; also called HEK293_LILRB2
Procedure: FIG. 31. Binding of LILRB2 antibodies on HEK293 stably expressing full length human LILRB2. Fifty thousand cells were incubated with a dilution series (40-0.0006 μg/mL) of LILRB2 antibodies in a final volume of 100 μL. Bound antibodies were detected with anti-human Fc-specific secondary antibody conjugated to AF647. All incubations were performed for 30 minutes at 4° C. Data shown is averaged geometric mean fluorescence intensity ± standard error of the mean (s.e.m.) after sample acquisition (in duplicates) in flow cytometer (BD FACS Celesta) and subtracted by background fluorescence of samples incubated with secondary antibody only.

Row | EC50 [µg/mL] | Binder
61 | 0.101 | B1
62 | 0.277 | B2
63 | 0.212 | B3
64 | 0.208 | B4

What follows are binders tested against T15, full length human LILRB2 stably … (assay: competition flow cytometry, inhibition of SEMA4A-hFc-AF647 binding to HEK293_LILRB2 cells).
Procedure: FIG. 34. […] Incubation was performed for 30 minutes at 4° C. Data shown is averaged geometric mean of fluorescence intensity ± standard error of the mean (s.e.m.) from duplicate samples acquired in a flow cytometer (BD FACS Celesta).

Row | IC50 [µg/mL] | Binder
65 | 0.482 | B1
66 | 3.19 | B2
67 | 2.66 | B3
68 | 2.12 | B4
